Data published in patent publication WO2012075111A1 (dated 2012).

What was measured:
soluble CD40 = molecular target: T1, soluble CD40 (Homo sapiens (Human), UniProt P25942 20-193); experiment: ELISA-type assays
T1 construct: Soluble CD40 as used in ELISA-type assays; the real soluble form is shorter

human CD40 (human) = human CD40 (human) (UniProt P25942); experiment: Biacore

T1 sequence (P25942 20-193): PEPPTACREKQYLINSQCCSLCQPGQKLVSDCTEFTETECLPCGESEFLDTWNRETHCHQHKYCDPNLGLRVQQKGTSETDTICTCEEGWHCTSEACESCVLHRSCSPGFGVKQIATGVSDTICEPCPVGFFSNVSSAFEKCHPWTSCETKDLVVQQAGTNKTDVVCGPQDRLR

- binding result (soluble CD40): binds
- Kd (human CD40 (human)): 500 pM
B1: monoclonal antibody HCD122 (antibody, human IgG1, kappa, V domains shown)
VH: QVQLVESGGGVVQPGRSLRLSCAASGFTFSSYGMHWVRQAPGKGLEWVAVISYEESNRYHADSVKGRFTISRDNSKITLYLQMNSLRTEDTAVYYCARDGGIAAPGPDYWGQGTLVTVSS
VL: DIVMTQSPLSLTVTPGEPASISCRSSQSLLYSNGYNYLDWYLQKPGQSPQVLISLGSNRASGVPDRFSGSGSGTDFTLKISRVEAEDVGVYYCMQARQTPFTFGPGTKVDIRR
notes: Fully human IgG1 kappa anti-CD40 monoclonal antibody from the hybridoma deposited as ATCC PTA-5543; also called CHIR-12.12
